{
  "source": "paper PMC8932414",
  "about": "“Latent TGFβ complexes are transglutaminase cross-linked to fibrillin to facilitate TGFβ activation” (Matrix Biology, 2022)",
  "binders": {"B1": {"name": "fibrillin-1 N-terminal region PF3 (domain or fragment)", "chain": "not shown", "notes": "fibrillin-1, N-terminal region called PF3; P35555-1 is printed for the AlphaFold input (115-287); PF1 and PF2 are two over-lapping constructs within this region; not verified; also called fibrillin1-PF3; fibrillin PF3 fragment"}},
  "target": "T1, CT1-SLC (LTBP1-CT region disulphide bonded to the TGFβ1 small latent complex) (UniProt Q14766 1347-1721; P01137 30-390, disulphide bonded to the SLC)",
  "T1 construct": "TGFβ1 small latent complex (proTGFβ1: prodomain LAP and growth factor); also called LTBP1-SLC; truncated version of the LLC; source: HEK293T, co-expressed from pBUD4.1, purified from serum free media (Anti-Flag M2 resin, SEC); not shown: Twin-Strep (chain inferred)",
  "T1 sequence (Q14766 1347-1721, chain 1 of 2)": "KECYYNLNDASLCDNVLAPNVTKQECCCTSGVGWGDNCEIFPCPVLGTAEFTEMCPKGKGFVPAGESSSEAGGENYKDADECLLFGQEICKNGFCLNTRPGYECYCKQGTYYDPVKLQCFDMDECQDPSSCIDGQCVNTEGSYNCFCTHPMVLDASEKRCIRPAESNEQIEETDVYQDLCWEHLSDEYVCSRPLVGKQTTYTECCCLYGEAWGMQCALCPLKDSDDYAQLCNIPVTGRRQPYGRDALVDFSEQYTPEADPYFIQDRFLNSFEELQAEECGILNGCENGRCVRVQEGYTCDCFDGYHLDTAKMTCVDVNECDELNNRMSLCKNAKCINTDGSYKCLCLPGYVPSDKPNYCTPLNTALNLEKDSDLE",
  "T1 sequence (P01137 30-390, chain 2 of 2)": "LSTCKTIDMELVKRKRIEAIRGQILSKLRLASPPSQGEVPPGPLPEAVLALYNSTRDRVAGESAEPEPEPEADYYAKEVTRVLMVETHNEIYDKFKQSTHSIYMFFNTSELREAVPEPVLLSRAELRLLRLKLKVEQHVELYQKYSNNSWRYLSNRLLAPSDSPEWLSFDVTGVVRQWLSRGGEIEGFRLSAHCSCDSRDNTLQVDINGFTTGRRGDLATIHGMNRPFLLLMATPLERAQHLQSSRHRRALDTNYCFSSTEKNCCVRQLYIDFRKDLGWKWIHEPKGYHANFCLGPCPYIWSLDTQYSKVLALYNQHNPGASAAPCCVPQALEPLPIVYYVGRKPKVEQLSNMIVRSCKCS",
  "test": "BLI; OctetRED96; biotinylated CT1-SLC on streptavidin biosensors, PF3 100-6.25 nM; 10 mM HEPES, 150 NaCl, pH 7.4, 0.005% Tween-20, 25 °C; 1:1 Langmuir fit",
  "settings": "both partners purified",
  "data": [
    {"binder": "B1", "values": [
      {"measurement": "Kd", "value": "~6", "unit": "nM"}
    ]}
  ]
}
